Numbering of substitutions follows the chain as printed.

This note sets out measurements from patent US20170247475A1 (Boehringer Ingelheim, published 2017).

Sequences and labels used below:
B1: VEGFBII23A03 (VHH)
VHH: EVQLVESGGGLVQPGDSLKLSCVASGRTFSSYSMGWFRQAQGKEREFVVAISSGGYIYDSVSLQGRFTISRDNTKNTVYLQTPSLKPEDTAVYYCAASRAYGSSRLRLADTYDYWGQGTQVTVSS
notes: periplasmic extract
B2: VEGFBII27D08 (VHH)
VHH: B1 VHH with P14T, K19R, V23A, I57K, Q64E, K75Q, T82I, P83N, S104G
notes: periplasmic extract
B3: VEGFBII40F02 (VHH)
VHH: B1 VHH with V23A, A24F, G35A, Y56F, S60A, Q64E, D89G
notes: periplasmic extract
B4: VEGFBII27G07 (VHH)
VHH: B1 VHH with F29S, K43Q
notes: periplasmic extract
B5: VEGFBII23D11 (VHH)
VHH: B1 VHH with K19R, V23A, A24F, G35A, Y56F, S60A, Q64E
notes: periplasmic extract
B6: VEGFBII30C09 (VHH)
VHH: B1 VHH with V23I, F29S, K43Q
notes: periplasmic extract; also called VEGFBII30009
B7: VEGFBII23E05 (VHH)
VHH: B1 VHH with G8E, F29S
notes: periplasmic extract
B8: VEGFBII23A08 (VHH)
VHH: B1 VHH with P14T, K19R, S53N, I57K, Q64E, T82I, P83N
notes: periplasmic extract
B9: VEGFBII22A11 (VHH)
VHH: B1 VHH with V23A, A24F, G35A, Y56F, S60A, Q64E
notes: periplasmic extract
B10: VEGFBII22E04 (VHH)
VHH: B1 VHH with F29S, Y56S, G102A
notes: periplasmic extract
B11: VEGFBII88G11 (VHH)
VHH: EVQLVESGGGLAQAGGSLRLSCAASGRTFSGSDMGWFRQSPGKEREIVAAIRLSGSITYYPDSVKGRFTISRDNAKNTVYLQMNSLKPEDTAVYYCAARSTYSYYLALADRGGYDYWGQGTQVTVSS
B12: VEGFBII87B07 (VHH)
VHH: EVQLVESGGGLVQPGGSLKLSCTASGFTFSTSWMHWVRQAPGKGLEWVSSIPPVGHFANYAPSVKGRFTISRDNAKNTLFLQMNSLKSEDTAVYYCAKDSAGRTKGQGTQVTVSS
B13: VEGFBII86G08 (VHH)
VHH: EVQLVESGGGLMQTGDSLRLSCAASGLRFTSTNMGWFRQGPGKEREFVAAITLSGTTYYAEAVKGRFTISRDNDKNTVALQMNSLKPEDTAVYYCGADPSYYSTSRYTKATEYDYWGQGTQVTVSS
B14: VEGFBII88B02 (VHH)
VHH: EVQLVESGGGLVQPGGSLRLSCTASGLNLDDYAIGWFRQAPGKEREGVSCISSYDSVTYYADHVKGRFTISRDSAKNTLYLQMNSLSIEDTGVYYCAAEREQLRRRESPHDELLRLCFYGMRYSGKGTLVTVSS
B15: VEGFBII89B08 (VHH)
VHH: EVQLVESGGGLVQPGGSLRLSCAASGTTSSIFAMRWYRQAPGKQRELVASITRSSITTYADSVKGRFTPSRDNAKNTVSLQMNSLKPEDTAVYYCNAAIRPELYSVVNDYWGQGTQVTVSS
B16: VEGFBII89G09 (VHH)
VHH: B15 VHH with P69L
B17: VEGFBII88A01 (VHH)
VHH: KVQLVESGGGLVQAGGSLRLSCAASERTFSNYAMDWFRQAPGKEREFVAAITRSGGGTYYADSVKGRFTISRDNAKNTVYLQMNSLKPEDTAVYYCAATRSSTIVVGVGGMEYWGKGTLVTVSS
B18: VEGFBII89D04 (VHH)
VHH: EVQLVESGGGLVQPGGSLRLSCATSGLTFSDYNLGWFRQAPGKERQFVAVISWRDSFAYYAEPVKGRFTISRDNAKNTVYLQMNSLKPEDTAVYYCAADRVSSRLVLPNTSPDFGSWGQGTQVTVSS
B19: VEGFBII86F11 (VHH)
VHH: EVQLVESGGGLVQAGDSLRLSCFTSARTFDTWAMAWFRQAPGKEREFISAISWSGSMTYYTDSVKGRFIISRDNAQNTLFLQMNNTAPEDTAVYYCAAKTVDYCSAYECYARLEYDYWGRGAQVTVSS
B20: VEGFBII01C02 (VHH)
VHH: EVQLVESGGGLVQAGGSLRLSCTASGGSFSSYGMGWFRQSPGKEREFVSAISEYSNTYCSDSVRGRFTISRDNTKNTVYLQMNSLTPDDTAIYYCAASPTILLTTEQWYKYWGQGTQVTVSS
B21: VEGFBII86G10 (VHH)
VHH: EVQLVESGGGLVQAGGSLRLSCAASGRTFNTYTMGWFRQTPGTEREFVAAIRWTVNITYYADSVKGRFTISRDIVKNTVYLQMNSLKPEDTAVYYCAAQTSAPRSLIRMSNEYPYWGQGTQVTVSS
B22: VEGFBII01E07 (VHH)
VHH: EVQLVESGGGLVQAGDSLRLSCVATGRTFRASDMGWFRQAPGKEREFVAAINWSGLSTFYTDSVKGRFTISRDNDNGALYLQMNTLKPEDTAVYSCAAGRIPSSSRFSSPAAYASWGQGTQVTVSS
B23: VEGFBII89F09 (VHH)
VHH: EVQLVESGGGLVQAGDSLRLSCAASGRTFNNAIMGWFRQAPGQEREFVAAMNWRGGPTYYADSVKGRFTISGDNTKNTVFLQMNFLKPEDTAVYYCAADEDLYHYSSYHYSRVDLYHYWGQGTQVTVSS
B24: VEGFBII86G11 (VHH)
VHH: EVQLVESGGGLVQAGGSLRLSCAASGLTFSLYTVGWFRQAPGKEREFVAYISRSGSNRYYVDSVKGRFTLSRDNAKNTVDLQMNSLKTEDTAVYYCAATSRGLSSLAGEYNYWGRGTQVTVSS
B25: VEGFBII89H08 (VHH)
VHH: EVQLVESGGGLVQAGGSLRLSCAASGGSFSSYAPGWFRQAPGKEREFVAAFTRSSNIPYYKDSVKGRFTISRDNAHTVYLQMNSLKPEDTAIYYCAVNLGSTWSRDQRTYDYWGQGTQVTVSS
B26: VEGFBII88G03 (VHH)
VHH: EVQLVESGGGLVQAGGSLRLSCAASGGTFSSLAVGWFRQAPGKEREFVARITWSGATTYYADAVKDRFTISRDNAKNTMYLQMNSLKPEDTAVYYCAADRSPNIINVVTAYEYDYWGQGTQVTVSS
B27: VEGFBII88E02 (VHH)
VHH: EVQLVESGGGLVQPGGSLRLSCVASGFRLDDYAIGWFRQAPGKEREAVSCISSSDTSIDYTNSVKGRFTFSRDNAKNTVYLQMNSLKPEDTAVYYCAAAFRCSGYELRGFPTWGQGTQVTVSS
B28: VEGFBII88A02 (VHH)
VHH: EVQLVESGGGLVQAGGSLRLSCAASGFTFGDYDIGWFRQAPGNEREGVSCITTDVGTTYYADSVKGRFTISSDNAKNTVYLQINDLKPEDTAIYYCAVDTQDLGLDIFCRGNGPFDGWGQGTQVTVSS
B29: VEGFBII89B04 (VHH)
VHH: EVQLVESGGGLVQAGGSLRLSCAASTSISSTNFMGWYRQAPGKQRELVATITSSSITNYVDSVKGRFTISRDNAKNTVYLQMTSLKPEDTAVYYCHARWRWSDVEYWGKGTLVTVSS
B30: VEGFBII88G05 (VHH)
VHH: EVQLVESGGGLVQPGASLRLSCAASGDGFTLYNMGWFRQAPGKEREFVAAITSSPMSTYYADSVKGRFSISINNDKTTGFLQMNVLKPEDTGVYFCAAPEGSFRRQYADRAMYDYWGQGTQVTVSS
B31: VEGFBII88H01 (VHH)
VHH: EVQLVESGGGLVQAGGSLRLSCVASGFTLGTYAIGWFRQAPGKEREAVSCMSAGDSIPWYTASVKGRFTTSTDNARNTVYLQMNSLKPEDTAHYYCAAARYHGDYCYYEGYYPFWGQGTQVTVSS

The target in the first assay is T1, recombinant human VEGF165 (human, UniProt P15692-4 27-191).
T1 construct: also called hVEGF165; rhVEGF165
T1 sequence (P15692 other isoform, or with tags, fused parts or gaps limits assumed): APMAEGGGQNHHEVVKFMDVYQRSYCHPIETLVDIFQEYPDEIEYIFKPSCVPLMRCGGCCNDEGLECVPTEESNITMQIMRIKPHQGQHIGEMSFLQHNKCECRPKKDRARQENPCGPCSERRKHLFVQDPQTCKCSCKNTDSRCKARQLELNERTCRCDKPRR
The assay can be described thus: Biacore, periplasmic extract on hVEGF165 chip. On the procedure: (§1) Dissociation rates of inhibitory VHHs are analyzed on Biacore (Biacore T100 instrument, GE Healthcare). HBS-EP+ buffer is used as running buffer and experiments are performed at 25° C. […] After immobilization, surfaces are deactivated with 10 min injection of 1M ethanolamine pH8.5. A reference surface is activated and deactivated with respectively EDC/NHS and ethanolamine. Periplasmic extracts of VHHs are injected at a 10-fold dilution in running buffer for 2 min at 45 μl/min and allowed to dissociate for 10 or 15 min. Between different samples, the surfaces are regenerated with regeneration buffer. Data are double referenced by subtraction of the curves on the reference channel and of a blank running buffer injection. […] is evaluated by fitting a two phase decay model in the Biacore T100 Evaluation software v2.0.1.
For the molecule B1, the “Binding level (RU)” value amounted to 487 RU. Take B2: the “Binding level (RU)” value is 225 RU. For B3, the “Binding level (RU)” value amounted to 258 RU. The same measure, in the same setting: the value for B4 was 471 RU; that for B5 was 510 RU. On the same count and under the same terms, the result for B6 reads 264 RU; that for B7, 275 RU; that for B8, 502 RU. As for B9, the “Binding level (RU)” value was found to be 461 RU.

In the case of B10, the “Binding level (RU)” value turned out to be 520 RU.

A further assay concerns the target T1, recombinant human VEGF165. The assay can be described thus: ELISA screen, periplasmic extract on coated hVEGF165. The text has this:
Wells are blocked with a casein solution (1%). After addition of typically a 10-fold dilution of the periplasmic extracts, VHH binding is detected using a mouse anti-myc (Roche) and an anti-mouse-HRP conjugate (DAKO). Clones showing ELISA signals of >3-fold above background are considered as VEGF binding VHHs.
Consider B11, for which the binding result was “binds”.

Turning to B12, the binding result is recorded as “binds”. On the same count and under the same terms, the result for B13 reads “binds”.

Consider B14, for which the binding result is listed as “binds”. Consider B15, for which the binding result is recorded as “binds”. The same measure, in the same setting: the value for B16 was “binds”. On the same count and under the same terms, the value for B17 was “binds”; that for B18 was “binds”; that for B19 was “binds”. The same measure, in the same setting: the result for B20 reads “binds”. As to B21, the binding result is reported as “binds”. Regarding B22, the binding result is on record as “binds”.

With B23, the binding result is “binds”. As for B24, the binding result is “binds”. Still for that read-out and setting: the result for B25 reads “binds”; that for B26, “binds”; that for B27, “binds”. Still for that read-out and setting: the result for B28 reads “binds”. Regarding B29, the binding result is listed as “binds”. The same measure, in the same setting: the value for B30 was “binds”; that for B31 was “binds”.

The target of a further assay is T1, recombinant human VEGF165. Description: Biacore, periplasmic extract on hVEGF165 chip, two phase decay fit. As to the method:
as §1
As for B1, the “% fast” value was determined as 15%. With B2, the “% fast” value turned out to be 13%. As for B3, the “% fast” value was found to be 20%. Same read-out and setting: the value for B4 was 18%; that for B5 was 13%. Regarding B6, the “% fast” value worked out at 19%. B7: the “% fast” value was 18%. Turning to B8, the “% fast” value is 19%. Same read-out and setting: the result for B9 reads 12%; that for B10, 14%.
